In patent US20210128616A1:

Target: CD19 (UniProt P15391)
Assay: cell-based or functional assay

UniProt P15391, sequence (P15391 20-291 limits assumed): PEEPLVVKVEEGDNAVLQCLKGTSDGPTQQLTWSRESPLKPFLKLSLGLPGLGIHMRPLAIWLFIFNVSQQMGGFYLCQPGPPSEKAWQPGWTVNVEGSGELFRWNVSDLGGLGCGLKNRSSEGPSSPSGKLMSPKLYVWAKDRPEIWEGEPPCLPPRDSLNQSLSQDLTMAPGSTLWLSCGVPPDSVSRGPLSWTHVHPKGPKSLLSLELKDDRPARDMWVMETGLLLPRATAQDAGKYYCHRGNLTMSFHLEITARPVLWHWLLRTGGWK

- relative standard deviation among lots of a parameter indicative of TNFα production by CD4+ CAR+ T cells after stimulation with CD19: 37%
- relative standard deviation among lots of a parameter indicative of TNFα production by CD8+ CAR+ T cells after stimulation with CD19: 51%
Substance: anti-CD19 chimeric antigen receptor (CAR) with an anti-CD19 scFv derived from murine antibody FMC63 (VL-linker-VH orientation), an immunoglobulin-derived spacer, a CD28-derived transmembrane domain, a 4-1BB costimulatory region and a CD3-zeta intracellular signaling domain
